Patent publication US20240166765A1 (ICONIC THERAPEUTICS, published 2024)

T1: cynomolgus TF ECD-His6 (cynomolgus monkey (Macaca fascicularis))
T1 construct: made in Expi293 cells; also called TF-His; cTF
T1 chain: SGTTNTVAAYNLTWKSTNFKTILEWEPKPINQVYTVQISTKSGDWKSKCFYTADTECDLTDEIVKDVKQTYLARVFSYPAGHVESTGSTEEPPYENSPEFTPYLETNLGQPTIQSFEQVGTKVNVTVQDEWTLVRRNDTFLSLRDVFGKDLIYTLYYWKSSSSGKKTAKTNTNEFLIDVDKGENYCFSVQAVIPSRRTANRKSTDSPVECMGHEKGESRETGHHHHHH

T2: pig TF-His (pig (Sus scrofa))
T2 construct: also called pig TF ECD-His; pTF
T2 chain: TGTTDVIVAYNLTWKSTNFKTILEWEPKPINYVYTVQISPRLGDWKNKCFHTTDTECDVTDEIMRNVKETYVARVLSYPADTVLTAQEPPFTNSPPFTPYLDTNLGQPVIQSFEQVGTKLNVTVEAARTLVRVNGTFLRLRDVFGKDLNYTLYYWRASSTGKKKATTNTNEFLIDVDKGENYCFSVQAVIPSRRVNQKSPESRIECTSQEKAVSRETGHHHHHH

T3: pig TF-His (pig (Sus scrofa))
T3 construct: also called pig TF ECD-His; pTF
T3 chain: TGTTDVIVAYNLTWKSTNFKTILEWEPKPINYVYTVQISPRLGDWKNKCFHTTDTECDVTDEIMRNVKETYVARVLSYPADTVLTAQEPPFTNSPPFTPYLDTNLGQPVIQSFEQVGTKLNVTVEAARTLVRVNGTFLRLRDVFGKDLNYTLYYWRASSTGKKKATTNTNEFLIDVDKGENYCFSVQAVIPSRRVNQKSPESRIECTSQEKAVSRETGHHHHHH

T4: h108-219_r (human/rat chimera)
T4 construct: on HEK293 cells
T4 chain: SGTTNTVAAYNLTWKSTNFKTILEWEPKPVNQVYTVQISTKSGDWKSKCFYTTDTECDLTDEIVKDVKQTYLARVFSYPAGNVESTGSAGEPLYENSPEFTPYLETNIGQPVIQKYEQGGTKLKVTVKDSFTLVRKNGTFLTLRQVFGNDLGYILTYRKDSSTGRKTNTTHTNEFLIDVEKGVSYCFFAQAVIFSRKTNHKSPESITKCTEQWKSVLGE


Tests used:
human TF ECD-His6 = biological target: T5, human TF ECD-His6 (human, UniProt P13726 33-251); assay: BLI (ForteBio Octet)
T5 construct: made in Expi293 cells; the entry holds the ECD with the C-terminal TG-His6; also called TF-His; hTF

cynomolgus TF ECD-His6 = biological target: T1, cynomolgus TF ECD-His6; assay: BLI (ForteBio Octet)
pig TF-His [1] = biological target: T2, pig TF-His; assay: SPR (Biacore), antibody captured by anti-human IgG
rabbit TF-His [2] = biological target: T6, rabbit TF-His (rabbit (Oryctolagus cuniculus), UniProt P24055 33-250); assay: SPR (Biacore), antibody captured by anti-human IgG
T6 construct: also called rabbit TF ECD-His
T6 sequence (P24055 other isoform, or with tags, fused parts or gaps): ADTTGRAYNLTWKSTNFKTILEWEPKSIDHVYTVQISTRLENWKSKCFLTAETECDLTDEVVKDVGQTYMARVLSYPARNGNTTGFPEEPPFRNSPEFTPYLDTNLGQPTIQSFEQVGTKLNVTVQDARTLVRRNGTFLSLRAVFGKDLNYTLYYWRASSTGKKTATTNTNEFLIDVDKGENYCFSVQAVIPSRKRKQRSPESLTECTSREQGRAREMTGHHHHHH

pig TF-His [3] = biological target: T3, pig TF-His; assay: SPR (Biacore), antibody captured by anti-human IgG on CM5 chip, pig TF-His in solution
rabbit TF-His [4] = biological target: T7, rabbit TF-His (rabbit (Oryctolagus cuniculus), UniProt P24055 33-250); assay: SPR (Biacore), antibody captured by anti-human IgG on CM5 chip, rabbit TF-His in solution
T7 construct: also called rabbit TF ECD-His
T7 sequence (P24055 other isoform, or with tags, fused parts or gaps): as above

h108-219_r = biological target: T4, h108-219_r; assay: live cell staining, flow cytometry

Row | Kd (human TF ECD-His6) [nM] | Kd (cynomolgus TF ECD-His6) [nM] | binding result (pig TF-His [3]) | binding result (rabbit TF-His [4]) | Percent antibody binding to TF construct relative to hTF (h108-219_r) [%] | Binder | binding result (pig TF-His [1]) | binding result (rabbit TF-His [2])
1 | – | – | no binding | no binding | – | 29D (antibody, human IgG1, V domains shown, Human IgG1; also called antibody 29D) VH: QVQLVESGGGVVQPGRSLRLSCAASGFTFHSRGMHWVRQAPGKGLEWVAVITYDGINKYYADSVEGRFTISRDNSKNTLYLQMNSLRAEDTAVYYCARDGVYYGVYDYWGQGTLVTVSS VL: not shown | – | –
2 | – | – | no binding | no binding | – | 1G (antibody, human IgG1, V domains shown, Human IgG1; also called antibody 1G) VH: EVQLLESGGGLVQPGGSLRLSCAASGFTFSSYAMAWVRQAPGKGLEWVSAISGSGGLTYYADSVKGRFTISRDNSKNTLYLQMNSLRAEDTAVYYCAKAPYGYYMDVWGKGTTVTVSS VL: not shown | – | –

The next lines start with the binder.

Row | Binder | Kd (human TF ECD-His6) [nM] | Kd (cynomolgus TF ECD-His6) [nM] | binding result (pig TF-His [3]) | binding result (rabbit TF-His [4]) | Percent antibody binding to TF construct relative to hTF (h108-219_r) [%] | binding result (pig TF-His [1]) | binding result (rabbit TF-His [2])
3 | 29D (antibody, human IgG1, V domains shown, human IgG1) VH: QVQLVESGGGVVQPGRSLRLSCAASGFTFHSRGMHWVRQAPGKGLEWVAVITYDGINKYYADSVEGRFTISRDNSKNTLYLQMNSLRAEDTAVYYCARDGVYYGVYDYWGQGTLVTVSS VL: not shown | 3.3 | 12 | – | – | – | no binding (tested: TF-His titration from 100 nM) | no binding (tested: TF-His titration from 100 nM)
4 | 5G9 (antibody, V domains shown, Previously described anti-TF antibody; also called humanized TF8-5G9; CNTO 860) VH: QVQLVESGGGVVQPGRSLRLSCKASGFNIKDYYMHWVRQAPGKGLEWIGLIDPENGNTIYDPKFQGRFTISADNSKNTLFLQMDSLRPEDTAVYYCARDNSYYFDYWGQGTPVTVSS VL: DIQMTQSPSSLSASVGDRVTITCKASQDIRKYLNWYQQKPGKAPKLLIYYATSLADGVPSRFSGSGSGTDYTFTISSLQPEDIATYYCLQHGESPYTFGQGTKLEIT | – | – | – | – | 0 | – | –
5 | 1G (antibody, human IgG1, V domains shown, human IgG1) VH: EVQLLESGGGLVQPGGSLRLSCAASGFTFSSYAMAWVRQAPGKGLEWVSAISGSGGLTYYADSVKGRFTISRDNSKNTLYLQMNSLRAEDTAVYYCAKAPYGYYMDVWGKGTTVTVSS VL: not shown | 2.2 | 2.7 | – | – | – | no binding (tested: TF-His titration from 100 nM) | no binding (tested: TF-His titration from 100 nM)
